From patent publication US20160244802A1 (UNIVERSITY OF NORTH CAROLINA AT CHAPEL HILL, published 2016)

Molecular target: the molecule itself
Assay: gel filtration (Sephacryl S300) native size against about 150 kDa on SDS-PAGE; inference
Protocol: The bound proteins were eluted with a 12-cv linear gradient from BD50 to BD450. The flow-through containing the HDM activity was adjusted to 700 mM ammonium sulfate before it was loaded onto a 22 mL Phenyl Sepharose® column (Pharmacia). The bound proteins were eluted with a cv linear gradient from BD700 to BD0. The active fractions, which eluted from 10-BD150-BD50, were combined and concentrated to 5 mL before they were loaded onto a 120 mL Sephacyl® S300 gel filtration column (Pharmacia). The active fractions, which eluted around 300 kDa, were pooled and loaded onto a 1 mL MonoS® column (Pharmacia) equilibrated with BC50. Bound proteins were eluted with a 20-cv linear gradient from BC50 to BC400. The active fractions eluted from BC100 to BC150. […]
To identify the protein(s) responsible for this demethylase activity, we monitored the enzymatic activity through five chromatography columns (Scheme 5). After purification of the 0.3 M P11 fraction through DEAE5PW and Phenyl Sepharose® columns, we determined that the native mass of the enzymatic activity was about 300 kDa as assessed by a Sephacyl® S300 column (FIG. 9A). […] To verify that JMJD1A was responsible for the detected demethylase activity, an antibody against this protein was generated and used to immunoprecipitate JMJD1A from the MonoS® column fractions 21-29. […]

B1: native JHDM2A (JMJD1A) purified from HeLa cells (enzyme)
chain: MVLTLGESWPVLVGRRFLSLSAADGSDGSHDSWDVERVAEWPWLSGTIRAVSHTDVTKKDLKVCVEFDGESWRKRRWIEVYSLLRRAFLVEHNLVLAERKSPEISERIVQWPAITYKPLLDKAGLGSITSVRFLGDQQRVFLSKDLLKPIQDVNSLRLSLTDNQIVSKEFQALIVKHLDESHLLKGDKNLVGSEVKIYSLDPSTQWFSATVINGNPASKTLQVNCEEIPALKIVDPSLIHVEVVHDNLVTCGNSARIGAVKRKSSENNGTLVSKQAKSCSEASPSMCPVQSVPTTVFKEILLGCTAATPPSKDPRQQSTPQAANSPPNLGAKIPQGCHKQSLPEEISSCLNTKSEALRTKPDVCKAGLLSKSSQIGTGDLKILTEPKGSCTQPKTNTDQENRLESVPQALTGLPKECLPTKASSKAELEIANPPELQKHLEHAPSPSDVSNAPEVKAGVNSDSPNNCSGKKVEPSALACRSQNLKESSVKVDNESCCSRSNNKIQNAPSRKSVLTDPAKLKKLQQSGEAFVQDDSCVNIVAQLPKCRECRLDSLRKDKEQQKDSPVFCRFFHFRRLQFNKHGVLRVEGFLTPNKYDNEAIGLWLPLTKNVVGIDLDTAKYILANIGDHFCQMVISEKEAMSTIEPHRQVAWKRAVKGVREMCDVCDTTIFNLHWVCPRCGFGVCVDCYRMKRKNCQQGAAYKTFSWLKCVKSQIHEPENLMPTQIIPGKALYDVGDIVHSVRAKWGIKANCPCSNRQFKLFSKPASKEDLKQTSLAGEKPTLGAVLQQNPSVLEPAAVGGEAASKPAGSMKPACPASTSPLNWLADLTSGNVNKENKEKQPTMPILKNEIKCLPPLPPLSKSSTVLHTFNSTILTPVSNNNSGFLRNLLNSSTGKTENGLKNTPKILDDIFASLVQNKTTSDLSKRPQGLTIKPSILGFDTPHYWLCDNRLLCLQDPNNKSNWNVFRECWKQGQPVMVSGVHHKLNSELWKPESFRKEFGEQEVDLVNCRTNEIITGATVGDFWDGFEDVPNRLKNEKEPMVLKLKDWPPGEDFRDMMPSRFDDLMANIPLPEYTRRDGKLNLASRLPNYFVRPDLGPKMYNAYGLITPEDRKYGTTNLHLDVSDAANVMVYVGIPKGQCEQEEEVLKTIQDGDSDELTIKRFIEGKEKPGALWHIYAAKDTEKIREFLKKVSEEQGQENPADHDPIHDQSWYLDRSLRKRLHQEYGVQGWAIVQFLGDVVFIPAGAPHQVHNLYSCIKVAEDFVSPEHVKHCFWLTQEFRYLSQTHTNHEDKLQVKNVIYHAVKDAVAMLKASESSFGKP
notes: Endogenous protein in MonoS column fractions from HeLa nuclear extract; also called TSGA
**Q.** Does B1 bind?
**A.** Result: binds
